Measurements reported in the supplement of paper PMC9732359.
± gives the uncertainty stated by the source.

Assay: protein stability index of a GFP-peptide fusion (yeast GPS) (PSI 1-4); higher = more stable; sorted into four equal gates, so the index is relative within each strain
Procedure, shortened: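 Plasmids isolated from each sorting gate were PCR-amplified and Illumina-sequenced, and barcodes assigned the reads to strains. The gates, four of equal size, were set by GFP/Cherry fluorescence ratio on mid-log cultures in leucine-free medium. These cultures were yeast carrying a pooled library of tiled 17-residue yeast protein peptides fused downstream of GFP on a plasmid that also expresses Cherry. The protein stability index is the sum of every gate's read frequency times its gate number.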

| Sequence | protein stability index (doa10∆) | protein stability index (pdr5∆) | protein stability index (san1∆) | protein stability index (ubr1∆) |
| --- | --- | --- | --- | --- |
| VFNDAHVLNKVTLASIL [RPN1] | 2.21 ± 0.091 | 2.09 ± 0.065 | 2.45 ± 0.096 | 2.03 ± 0.05 |
| QQLLPAPQLFPYGSFHQ [DSN1] | 2.72 ± 0.09 | 3.01 ± 0.1 | 2.72 ± 0.072 | 3.04 ± 0.08 |
| YVAPTKKEYIELDILNK [SRB4] | 2.76 ± 0.17 | 3.25 ± 0.22 | 2.74 ± 0.13 | 2.75 ± 0.2 |
| LSGKFSTIPTRENGKGG [ROX3] | 3.28 ± 0.23 | 3.22 ± 0.11 | 3.01 ± 0.063 | 3.1 ± 0.23 |
| SKKETKLQENRTLLTEE [SMC2] | – | 3.23 ± 0.24 | – | 3.08 ± 0.14 |
| GTGLFGQQTAQPQQSTI [YGR119C/NUP57] | 2.76 ± 0.063 | 3.13 ± 0.046 | 2.85 ± 0.051 | 3.19 ± 0.058 |
| TKISTLAVKVHGGSRYA [QCR2] | 1.34 ± 0.12 | 1.64 ± 0.21 | 1.18 ± 0.29 | 1.41 ± 0.17 |
| SRVINVVRAASSLASQD [RRP6] | 1.98 ± 0.082 | 2.47 ± 0.074 | 2.57 ± 0.18 | – |
| EHIKEGSEIAISSLGYR [SWI3] | 2.78 ± 0.055 | 3.02 ± 0.063 | 2.99 ± 0.05 | 2.95 ± 0.052 |
| PDAQNELPKFILSDSPL [DIS3] | 2.87 ± 0.048 | 3.03 ± 0.063 | 2.87 ± 0.044 | 2.92 ± 0.079 |
| VVNQPTGKIVDVVGTLS [FAS1] | 3.1 ± 0.12 | 3.49 ± 0.12 | 3.49 ± 0.092 | 3.11 ± 0.061 |
| KGDRALLVKLSKRLPLR [BRR2] | 2.47 ± 0.047 | 2.57 ± 0.042 | 2.34 ± 0.094 | 2.57 ± 0.042 |
| EAVELPLVQADLYEQIG [RPT3] | 3.17 ± 0.15 | 2.81 ± 0.24 | 3.39 ± 0.12 | 2.93 ± 0.17 |
| FPSIPLPINGPITNKER [RPC31] | 2.23 ± 0.058 | 2.37 ± 0.064 | 2.17 ± 0.082 | 2.56 ± 0.11 |
| EMMKMMQDPQMQQMAKQ [SRP54] | 3.07 ± 0.057 | 2.76 ± 0.067 | 2.77 ± 0.039 | 2.67 ± 0.038 |
| ITVVPVVAAAEDDDNEQ [QCR6] | 1.61 ± 0.068 | 2.04 ± 0.064 | 1.72 ± 0.12 | 1.89 ± 0.036 |
| GNDNNSDSNANAAVAGV [SWI3] | 3.21 ± 0.057 | 3.35 ± 0.056 | 3.31 ± 0.029 | 3.18 ± 0.058 |
| IGGLLSKVREEVGDVCI [RPO31] | 2.13 ± 0.1 | 1.86 ± 0.067 | 2.11 ± 0.11 | 2.79 ± 0.11 |
| EKVFTQGLNILEWLENP [FAS1] | 3.18 ± 0.12 | 2.98 ± 0.081 | 3.44 ± 0.054 | 3.17 ± 0.046 |
| PCVEDGFVIQDRETALD [RPB2] | 3.17 ± 0.088 | 3.18 ± 0.11 | 3.16 ± 0.19 | 3.2 ± 0.078 |
| MSNIVGIEYNRVTNTTS [RPC40] | 3.36 ± 0.22 | 3.33 ± 0.13 | 2.73 ± 0.08 | 2.88 ± 0.096 |
| VGASVVVVKNWGAETDE [RPS12] | 3.34 ± 0.12 | 3.12 ± 0.089 | 3.29 ± 0.047 | 2.97 ± 0.067 |
| PDDEKFTDENTIVLSLN [RPC40] | 3.46 ± 0.13 | 3.6 ± 0.085 | 3 ± 0.16 | 3.47 ± 0.087 |
| VEQGYEDAFNFWFDKLV [YCG1] | 3.05 ± 0.12 | 2.66 ± 0.14 | 3.38 ± 0.1 | 2.38 ± 0.2 |
| HTQANEPNSAKKIRFLQ [RGR1] | 2.98 ± 0.24 | 3.51 ± 0.11 | 3.12 ± 0.22 | 3.33 ± 0.18 |
| RQTTSNTGLLNKANIQA [RPN11] | 3 ± 0.092 | 3.02 ± 0.072 | 3.17 ± 0.054 | 3.19 ± 0.07 |
| EKYEDEDEEKILDNTEN [DSN1] | 3.52 ± 0.15 | 3.16 ± 0.1 | 3.01 ± 0.26 | 3.21 ± 0.091 |

| Sequence | protein stability index (doa10∆) | protein stability index (pdr5∆) | protein stability index (san1∆) | protein stability index (ubr1∆) |
| --- | --- | --- | --- | --- |
| GSTFKVNQEFIFEAISL [YJL039C/NUP192] | 2.33 ± 0.1 | 2.31 ± 0.12 | 1.43 ± 0.15 | 1.49 ± 0.079 |
| VLVGSCAYTGTGDVLLI [RPN1] | 3.13 ± 0.094 | 3.35 ± 0.067 | 3.41 ± 0.13 | 3.1 ± 0.075 |
| TNFEILNEMLNTRKNMS [DIS3] | 2.97 ± 0.059 | 3.07 ± 0.091 | 3.06 ± 0.054 | 3.09 ± 0.041 |
| QIPQQLYQSLTPQQLQM [SNF5] | 2.73 ± 0.041 | 2.7 ± 0.038 | 2.57 ± 0.045 | 2.77 ± 0.034 |
| AEHKYMPYTINELLEMV [BRR2] | 2.92 ± 0.083 | 3.04 ± 0.092 | 2.53 ± 0.068 | 2.65 ± 0.043 |
| DLKKLNLNVYIQVFEKP [CDC53] | 2.23 ± 0.11 | 2.5 ± 0.17 | 2.33 ± 0.27 | 2.78 ± 0.09 |
| MEKDKLKNLLRSNFRVN [SNU114] | 1.99 ± 0.087 | 2.45 ± 0.08 | 2.46 ± 0.13 | 2.65 ± 0.087 |
| TLRKELEQIQVQLKDAN [YIL149C/MLP2] | 2.51 ± 0.1 | 2.96 ± 0.093 | 2.67 ± 0.096 | 2.24 ± 0.051 |
| LILIPGETMWVPIKSSK [RPN13] | 2.17 ± 0.083 | 2.51 ± 0.068 | 2.61 ± 0.057 | 1.81 ± 0.055 |
| DFIKFDQIAVCEISGSI [BRN1] | 2.32 ± 0.14 | 2.4 ± 0.12 | 2.12 ± 0.14 | 2.82 ± 0.076 |
| LLSQFGIKVLPETCLFV [YML103C/NUP188] | 2.1 ± 0.075 | 1.55 ± 0.058 | 1.18 ± 0.14 | 1.33 ± 0.059 |
| ATHLPKDNVEHLVMRAI [RPN9] | 2.88 ± 0.089 | 3.09 ± 0.07 | 2.77 ± 0.067 | 2.9 ± 0.06 |
| STNGLGMCQLYFWHKIW [SNU114] | – | 1.24 ± 0.24 | 2.56 ± 0.21 | – |
| AGNTTTGGGLFGSKPTG [YGL172W/NUP49] | 2.4 ± 0.084 | 2.18 ± 0.17 | 2.64 ± 0.11 | 2.21 ± 0.097 |
| FEKKELQEKFLNQIATL [IRR1] | 1.08 ± 0.056 | 1.23 ± 0.057 | 1.15 ± 0.1 | 1.04 ± 0.062 |
| DLMDDMSDISDLDDLGF [RPN3] | 1.82 ± 0.098 | 1.89 ± 0.081 | 1.57 ± 0.14 | 1.74 ± 0.075 |
| KAKRAKTGSASTVKGSV [TAF14] | 2.9 ± 0.11 | 2.66 ± 0.24 | 2.77 ± 0.16 | 3.16 ± 0.083 |
| FDHNDKKLSINSAARNI [PRE7] | 2.72 ± 0.059 | 2.47 ± 0.059 | 2.4 ± 0.055 | 2.83 ± 0.065 |
| RSPEEIRRTFNIVNDFT [SKP1] | 1.36 ± 0.058 | 2.06 ± 0.094 | 1.53 ± 0.13 | 2.12 ± 0.04 |
| NSTSKNTLLQQQNYSKV [SWI1] | 2.33 ± 0.067 | 2.86 ± 0.12 | 2.08 ± 0.078 | 2.68 ± 0.06 |
| DDLERLKKIRAHRGIRH [RPS18A] | 1.47 ± 0.18 | 1.31 ± 0.1 | 1.21 ± 0.18 | 1.31 ± 0.18 |
| GEKNSDDYSNEDNEMLE [YJR042W/NUP85] | – | – | 2.06 ± 0.29 | 1.89 ± 0.14 |
| WLEQFLSCVKNDTISED [NUT1] | 1.73 ± 0.046 | 1.51 ± 0.04 | 1.36 ± 0.059 | 1.54 ± 0.035 |
| NQIWNIALNLASKKFGK [SSN2] | 2.7 ± 0.13 | 2.88 ± 0.052 | 3.06 ± 0.067 | 3.08 ± 0.056 |
| LPNLGTPDDDEIDVENH [RPN8] | 1.53 ± 0.076 | 1.82 ± 0.083 | 1.69 ± 0.11 | 1.42 ± 0.056 |
| NISNNLQKALTVKTNDE [RPN8] | 3.02 ± 0.16 | 3 ± 0.11 | 2.82 ± 0.14 | 2.88 ± 0.067 |
| ANANANATANATANATA [SNF11] | 3.14 ± 0.037 | 3.37 ± 0.037 | 3.285 ± 0.031 | 3.342 ± 0.029 |
